The source of these data is paper PMC7166090, “A bacteriophage mimic of the bacterial nucleoid-associated protein Fis” (Biochemical Journal, 2020).

Series [1] concerns the target His-NinH S29A R30A (bacteriophage λ) (UniProt P03771). Description: AUC; sedimentation velocity, ~0.6 mg/ml protein, 4°C, 50 000 rpm, scans at 260 and 280 nm, SEDFIT.
In series [2] the target is T1, His-NinH R56A (Bacteriophage lambda (cI857 Sam7), UniProt P03771 1-68, A15T;R56A).
T1 sequence: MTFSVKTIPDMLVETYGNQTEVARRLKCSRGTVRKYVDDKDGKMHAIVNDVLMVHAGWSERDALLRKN
Described as above.

Series [3] has as its target T2, His-NinH N18A (Bacteriophage lambda (cI857 Sam7), UniProt P03771 1-68, A15T;N18A).
T2 sequence: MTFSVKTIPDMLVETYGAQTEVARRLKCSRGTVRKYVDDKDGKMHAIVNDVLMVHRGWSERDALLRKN
Described as above.

Series [4] deals with T3, His-NinH T32A (Bacteriophage lambda (cI857 Sam7), UniProt P03771 1-68, A15T;T32A).
T3 sequence: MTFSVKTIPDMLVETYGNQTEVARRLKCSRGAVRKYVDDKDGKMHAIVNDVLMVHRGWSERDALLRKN
The series is described as above.

Series [5] addresses T4, His-NinH K35A (Bacteriophage lambda (cI857 Sam7), UniProt P03771 1-68, A15T;K35A).
T4 sequence: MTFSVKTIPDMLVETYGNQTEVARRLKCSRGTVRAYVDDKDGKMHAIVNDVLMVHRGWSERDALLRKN
Described as above.

Series [6] has as its target His-NinH R30A (bacteriophage λ) (UniProt P03771). The description is as above.
In series [7] the target is T5, His-NinH S29A (Bacteriophage lambda (cI857 Sam7), UniProt P03771 1-68, A15T;S29A).
T5 sequence: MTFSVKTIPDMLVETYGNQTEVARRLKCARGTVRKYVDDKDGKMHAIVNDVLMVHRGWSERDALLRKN
Described as above.

Series [8] deals with the molecule itself. Put plainly: SAXS; His-NinH in solution at 4 mg/ml, Xeuss 2.0 laboratory SAXS system.
The target of series [9] is T6, His-NinH wt (Bacteriophage lambda (cI857 Sam7), UniProt P03771 1-68, A15T).
T6 sequence: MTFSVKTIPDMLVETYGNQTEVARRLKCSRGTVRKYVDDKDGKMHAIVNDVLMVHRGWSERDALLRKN
Put plainly: EMSA; two complexes; MST: PBS pH 7.4 + 0.05% Tween-20, 22 C; anisotropy: 6.7 mM Tris-HCl pH 8.0, 3.3 nM (so in the source) sodium acetate, 2 mM EDTA, 25 C; EMSA (32P): 50 mM Tris-HCl pH 8.0, 5 mM EDTA, 1 mM DTT, 5% glycerol, 100 ug/ml BSA, on ice; EMSA (Cy520): PBS pH 7.4, room temp. The conditions noted are these: protein: recombinant; tags: N-His6; chain copies: 2; label: 5'-32P on strand 1; blunt. (In general: In EMSA bound probe runs differently from free probe, usually more slowly.)

Series [10] concerns the target T7, NinH (native, untagged) (Bacteriophage lambda (cI857 Sam7), UniProt P03771 1-68, A15T).
T7 sequence: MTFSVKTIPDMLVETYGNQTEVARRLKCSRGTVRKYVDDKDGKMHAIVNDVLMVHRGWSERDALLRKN
Described as above. The conditions noted are these: protein: recombinant; tags: none; chain copies: 2; label: 5'-32P on strand 1; blunt.

Series [11] concerns the target T7, NinH (native, untagged). Description: EMSA; affinity similar to DS60, more second complex; MST: PBS pH 7.4 + 0.05% Tween-20, 22 C; anisotropy: 6.7 mM Tris-HCl pH 8.0, 3.3 nM (so in the source) sodium acetate, 2 mM EDTA, 25 C; EMSA (32P): 50 mM Tris-HCl pH 8.0, 5 mM EDTA, 1 mM DTT, 5% glycerol, 100 ug/ml BSA, on ice; EMSA (Cy520): PBS pH 7.4, room temp. The conditions noted are these: protein: recombinant, tags: none, chain copies: 2, label: 5'-32P on strand 1.

Series [12] addresses T7, NinH (native, untagged). Put plainly: EMSA; similar to DS60; MST: PBS pH 7.4 + 0.05% Tween-20, 22 C; anisotropy: 6.7 mM Tris-HCl pH 8.0, 3.3 nM (so in the source) sodium acetate, 2 mM EDTA, 25 C; EMSA (32P): 50 mM Tris-HCl pH 8.0, 5 mM EDTA, 1 mM DTT, 5% glycerol, 100 ug/ml BSA, on ice; EMSA (Cy520): PBS pH 7.4, room temp. Particulars: protein: recombinant, tags: none, chain copies: 2, label: 5'-32P on strand 1.

Series [13] addresses T7, NinH (native, untagged). Description: fluorescence anisotropy; Hill 2.23; dimer concentration; MST: PBS pH 7.4 + 0.05% Tween-20, 22 C; anisotropy: 6.7 mM Tris-HCl pH 8.0, 3.3 nM (so in the source) sodium acetate, 2 mM EDTA, 25 C; EMSA (32P): 50 mM Tris-HCl pH 8.0, 5 mM EDTA, 1 mM DTT, 5% glycerol, 100 ug/ml BSA, on ice; EMSA (Cy520): PBS pH 7.4, room temp. Particulars: protein: recombinant; tags: none; chain copies: 2; label: 3'-fluorescein (C6 linker) on strand 1; blunt. (In general: Polarisation of emitted light reports the rotation of a fluorescent probe.)

Series [14] has as its target T6, His-NinH wt. Put plainly: fluorescence anisotropy; Hill 1.985; dimer concentration; MST: PBS pH 7.4 + 0.05% Tween-20, 22 C; anisotropy: 6.7 mM Tris-HCl pH 8.0, 3.3 nM (so in the source) sodium acetate, 2 mM EDTA, 25 C; EMSA (32P): 50 mM Tris-HCl pH 8.0, 5 mM EDTA, 1 mM DTT, 5% glycerol, 100 ug/ml BSA, on ice; EMSA (Cy520): PBS pH 7.4, room temp. Particulars: protein: recombinant; tags: N-His6; chain copies: 2; label: 3'-fluorescein (C6 linker) on strand 1; blunt.

In general, stoichiometry N refers to a count of units in the complex or per binding partner. With “His-NinH S29A R30A (from UniProt P03771 1-68) (natural protein)”, in series [1], the stoichiometry N is 2.

On to “His-NinH R56A (from UniProt P03771 1-68) (natural protein)”, for which the stoichiometry N in series [2] came out at 2.

Regarding “His-NinH N18A (from UniProt P03771 1-68) (natural protein)”, in series [3], the stoichiometry N turned out to be 2.

For “His-NinH T32A (from UniProt P03771 1-68) (natural protein)”, the stoichiometry N in [4] stood at 2.

Consider “His-NinH K35A (from UniProt P03771 1-68) (natural protein)”, for which, in series [5], the stoichiometry N turned out to be 2.

For “His-NinH R30A (from UniProt P03771 1-68) (natural protein)”, the stoichiometry N in series [6] came out at 2.

Regarding “His-NinH S29A (from UniProt P03771 1-68) (natural protein)”, in [7], the stoichiometry N was determined as 2.

B1: N-His6-NinH (bacteriophage λ NinH, wild type) (natural protein)
chain: MTFSVKTIPDMLVEAYGNQTEVARRLKCSRGTVRKYVDDKDGKMHAIVNDVLMVHRGWSERDALLRKN
Regarding B1, the “stoichiometry N” value in series [8] came out at 2.

B2: DS50 (dsDNA)
DNA 1: GGCGACGTGATCACCAGATGATTGCTAGGCATGCTTTCCGCAAGAGAAGC
DNA 2: GCTTCTCTTGCGGAAAGCATGCCTAGCAATCATCTGGTGATCACGTCGCC
For the molecule B2, in series [9], the binding result is given as “binds”.

B3: DS60 (dsDNA)
DNA 1: TTTGGTCTAACTTTACCGCTACTAAATGCCGCGGATTGGTTTCGCTGAATCAGGTTATTA
DNA 2: TAATAACCTGATTCAGCGAAACCAATCCGCGGCATTTAGTAGCGGTAAAGTTAGACCAAA
With B3, in series [10], the binding result was “binds”.

B4: BT3 (dsDNA)
DNA 1: TTTGGTCTAACTTTACCGCTACTAAATGCCGCGGATTGGTTTCGCTGAATCAGGTTATTA
DNA 2: TAATAACCTGATTCAGCGAAACCAATCCAAAGCGGCATTTAGTAGCGGTAAAGTTAGACCAAA
With B4, the binding result in [11] (3 extra A bulge in strand 2) was “binds”.

B5: BT2 (dsDNA)
DNA 1: TTTGGTCTAACTTTACCGCTACTAAATGCCGCGGATTGGTTTCGCTGAATCAGGTTATTA
DNA 2: TAATAACCTGATTCAGCGAAACCAATCCAAGCGGCATTTAGTAGCGGTAAAGTTAGACCAAA
B5: the binding result in series [11] (2 extra A bulge in strand 2) was “binds”.

B6: BB13 (dsDNA)
DNA 1: TTTGGTCTAACTTTACCGCTACTAAATGCCGCGGATTGGTTTCGCTGAATCAGGTTATTA
DNA 2: TAATAACCTGATTCAGCGAAACATTGTAGGTAAGCTTAGTAGCGGTAAAGTTAGACCAAA
Regarding B6, in [12] (central 13 nt bubble), the binding result is “binds”.

B7: BB5 (dsDNA)
DNA 1: TTTGGTCTAACTTTACCGCTACTAAATGCCGCGGATTGGTTTCGCTGAATCAGGTTATTA
DNA 2: TAATAACCTGATTCAGCGAAACCAATCGCAACCATTTAGTAGCGGTAAAGTTAGACCAAA
As to B7, the binding result in series [12] (central 5 nt bubble) is reported as “binds”.

B8: BB20 (dsDNA)
DNA 1: TTTGGTCTAACTTTACCGCTACTAAATGCCGCGGATTGGTTTCGCTGAATCAGGTTATTA
DNA 2: TAATAACCTGATTCAGCGAATGACCGATAACGTCCACTTGAGCGGTAAAGTTAGACCAAA
For the molecule B8, the binding result in [12] (central 20 nt bubble) is recorded as “binds”.

B9: BB1 (dsDNA)
DNA 1: TTTGGTCTAACTTTACCGCTACTAAATGCCGCGGATTGGTTTCGCTGAATCAGGTTATTA
DNA 2: TAATAACCTGATTCAGCGAAACCAATCGGCGGCATTTAGTAGCGGTAAAGTTAGACCAAA
B9: the binding result in series [12] (central 1 nt mismatch) is reported as “binds”.

B10: BT1 (dsDNA)
DNA 1: TTTGGTCTAACTTTACCGCTACTAAATGCCGCGGATTGGTTTCGCTGAATCAGGTTATTA
DNA 2: TAATAACCTGATTCAGCGAAACCAATCCAGCGGCATTTAGTAGCGGTAAAGTTAGACCAAA
As to B10, in series [11] (1 extra A bulge in strand 2), the binding result is reported as “binds”.

B11: DS20 (o-FLU20/o-SS20) (dsDNA)
DNA 1: TGGGTCAACGTGGGCAAAGA
DNA 2: TCTTTGCCCACGTTGACCCA
Usually Kd stands for a measure of binding affinity in units of concentration. Consider B11, for which the values for the Kd in series [13] and in series [14] were around 57 nM and 43 nM, respectively.
